A short description of the series: western blot of conditioned medium, 24 h. The settings on record: glycan lost; control: wild type. Background: In western blotting, separated proteins are transferred to a membrane and probed.

antithrombin: S137A: the expression_or_secretion result is “no change”.

Consider antithrombin: S137T, for which the expression_or_secretion result is on record as “no change”.

The record behind these values is PMC4259341.
